Assay results as given in paper doi:10.1101/2022.06.06.494913 (bioRxiv, 2022).

Target: EIIA^Glc (UniProt P69783 2-169)
Test: SPR + ELISA

Chain of EIIA^Glc (P69783 2-169): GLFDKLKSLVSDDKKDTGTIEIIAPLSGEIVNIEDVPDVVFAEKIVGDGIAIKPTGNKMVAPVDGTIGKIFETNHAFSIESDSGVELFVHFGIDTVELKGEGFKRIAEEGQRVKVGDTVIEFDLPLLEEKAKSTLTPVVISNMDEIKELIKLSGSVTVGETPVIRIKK

B1: EIIB^Glc (domain or fragment)
chain: EDATEDAKATGTSEMAPALVAAFGGKENITNLDACITRLRVSVADVSKVDQAGLKKLGAAGVVVAGSGVQAIFGTKSDNLKTEMDEYIRN
For B1, the Kd was over 10 µM.
